Results as given in paper PMC8134462, “Cross-reactive serum and memory B-cell responses to spike protein in SARS-CoV-2 and endemic coronavirus infection” (Nature Communications, 2021).

Legend:
[1] = biological target: T1, HCoV-OC43 spike protein, full-length, expressed on the HEK293T cell surface (HCoV-OC43); assay: flow cytometry on cells; settings: one partner purified
T1 construct: source: HEK293T, transfected (phCMV3), on the cell surface

[2] = biological target: T2, HCoV-HKU1 spike protein, full-length, expressed on the HEK293T cell surface (HCoV-HKU1, isolate N1 (YP_173238.1), UniProt Q5MQD0); assay: flow cytometry on cells; settings: one partner purified
T2 construct: also called HKU1-CoV S; source: HEK293T, transfected (phCMV3), on the cell surface

[3] = biological target: T3, SARS-CoV-2 spike protein, full-length, expressed on the HEK293T cell surface (SARS-CoV-2, Wuhan-Hu-1 (MN908947), UniProt P0DTC2); assay: flow cytometry on cells; settings: one partner purified
T3 construct: source: HEK293T, transfected (phCMV3), on the cell surface

[4] = biological target: T4, HCoV-NL63 spike protein, full-length, expressed on the HEK293T cell surface (HCoV-NL63 (YP_003767.1), UniProt Q6Q1S2); assay: flow cytometry on cells; settings: one partner purified
T4 construct: source: HEK293T, transfected (phCMV3), on the cell surface

[5] = biological target: T5, HCoV-229E spike protein, full-length, expressed on the HEK293T cell surface (HCoV-229E (NP_073551.1), UniProt P15423); assay: flow cytometry on cells; settings: one partner purified
T5 construct: source: HEK293T, transfected (phCMV3), on the cell surface

[6] = biological target: T6, SARS-CoV-2 receptor-binding domain-RBD (residue 320-527) (SARS-CoV-2, Wuhan-Hu-1 (MN908947), UniProt P0DTC2); assay: BLI; settings: both partners purified
T6 construct: source: FreeStyle293F, transfected, purified (Ni-NTA, SEC)

[7] = biological target: T7, SARS-CoV-2 N-terminal domain-NTD (residue 1-290) (SARS-CoV-2, Wuhan-Hu-1 (MN908947), UniProt P0DTC2); assay: BLI; settings: both partners purified
T7 construct: source: FreeStyle293F, transfected, purified (Ni-NTA, SEC)

[8] = biological target: T8, SARS-CoV-2 RBD-SD1 (residue 320-591) (SARS-CoV-2, Wuhan-Hu-1 (MN908947), UniProt P0DTC2); assay: BLI; settings: both partners purified
T8 construct: source: FreeStyle293F, transfected, purified (Ni-NTA, SEC)

[9] = biological target: T9, SARS-CoV-2 RBD-SD1-2 (residue 320-681) (SARS-CoV-2, Wuhan-Hu-1 (MN908947), UniProt P0DTC2); assay: BLI; settings: both partners purified
T9 construct: source: FreeStyle293F, transfected, purified (Ni-NTA, SEC)

[10] = biological target: T10, HCoV-HKU1 soluble S ectodomain protein (residue 1-1295), prefusion-stabilized, with T4 fibritin trimerization … (HCoV-HKU1, isolate N1 (YP_173238.1), UniProt Q5MQD0, A1071/L1072 replaced by proline residues); assay: BLI; settings: both partners purified
T10 construct: also called HCoV-HKU1 S-protein; HKU1-CoV S protein; source: FreeStyle293F, transfected, purified (Ni-NTA or GNL column, SEC)

Binder	binding result [1]	binding result [2]	binding result [3]	binding result [4]	binding result [5]	binding result [6]	binding result [7]	binding result [8]	binding result [9]	binding result [10]
second SARS-CoV-2/HCoV-HKU1 cross-reactive mAb from the CC40 donor (its name is not printed in the text) (antibody, V domains shown, also called one of the two cross-reactive mAbs from the CC40 donor) VH: EVQLVESGGGVVQPGRSLRLSCVASGFTFSNYGMHWVRQAPGKGLEWVAVMSYDGSVTYYGDSVRGRFTISRDNSKNTLYLQMSSLRTDDTGVYYCAKGQPLDDIWGLGTLVTVSS VL: EIVMTQSPLSLPVSLGQSASISCRSSQSLVHTDGITYLSWFQQRPGQSPRRLLYKVSNRDSGVPDRFSGSGSGTDFTLKISRVEAEDVGVYYCLQGTYWPWTFGQGTKVEIK	binds	binds	binds	no binding	no binding	no binding	no binding	no binding	no binding	
mAb CC9.1 (antibody, V domains shown) VH: EVQLVESGGGLVQPGRSLRLSCVAPGFTLGGYGMHWVRQAPGKGLEWVGLISYDGSVQKYGSSVKGRFTISKDNSKNTLYLEMNSLRADDTAVYFCVKGASLGDNWGQGTLVTVSS VL: EIVMTQSPLSLPVTLGQPASISCRSSQSLVYSDGDTYMSWFHQRPGQSPRRLIYKVSNRDSGVPDRFSGSGSGTDFTLKISRVEAEDVGVYYCMQGTHWPYTFGPGTKVEIK	binds	binds	binds	no binding	no binding	no binding	no binding	no binding	no binding	
Fab CC9.2 (Fab, V domains shown, also called CC9.2 Fab) VH: EVQLVESGGGLVQPGRSLRLSCVAPGFTLGGYGMHWVRQAPGKGLEWVGLISYDGSVQKYGSSVKGRFTISKDNSKNTLYLEMNSLRADDTAVYFCVKGASLGDNWGQGTLVTVSS VL: EIVMTQSPLSLPVTLGQPASISCRSSQSLVYSDGDTYMSWFHQRPGQSPRRLIYKVSNRDFGVPDRFSGSGSGTDFTLKISRVEAEDVGVYYCMQGTHWPYTFGPGTKVEIK										binds
mAb CC9.2 (IgG) (antibody, V domains shown) VH: EVQLVESGGGLVQPGRSLRLSCVAPGFTLGGYGMHWVRQAPGKGLEWVGLISYDGSVQKYGSSVKGRFTISKDNSKNTLYLEMNSLRADDTAVYFCVKGASLGDNWGQGTLVTVSS VL: EIVMTQSPLSLPVTLGQPASISCRSSQSLVYSDGDTYMSWFHQRPGQSPRRLIYKVSNRDFGVPDRFSGSGSGTDFTLKISRVEAEDVGVYYCMQGTHWPYTFGPGTKVEIK	binds	binds	binds	no binding	no binding	no binding	no binding	no binding	no binding	binds
